The supplement of paper PMC12636428

System: Saccharomyces cerevisiae
Assay: transcriptional activation domain activity (GFP:mCherry ratio, weighted mean of sorted bins, harmonized to initial dataset scale) (arbitrary fluorescence ratio units); higher = stronger transcriptional activation
Conditions: beta-estradiol 1 µM; induction time 4 h
Outline: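 The listed activation activity is a read-weighted mean of bin median fluorescence, averaged across barcodes and linearly mapped onto the initial dataset scale. Barcoded tiles, fused to an estradiol-inducible synthetic transcription factor, were integrated at URA3 in yeast diploids bearing a GFP reporter. Cells were held 4 hours at 30 °C in SC with 1 uM beta-estradiol, sorted into 8 GFP:mCherry bins, and sequenced, and tiles with fewer than 50 reads were excluded.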

Sequence	transcriptional activation domain activity
RKLRTKIIELSGSVEAACALGVADGIVDLVESGETMRAAGLKAIDTVVDTQAV	29100
RKNNKREVKVEAREPHHKGRKNNKREVEAVEEVEARDPHHKGRKNNNREVEVE	28300
RKNTSSEEDELEESRNNRNKNHRSRQDGNKEDRSSRSRQSHRQKRERSGSEER	14100
RKPEAAAEKAAEAPEAAGGEGTRRRASGRGRGRGRNGRGGRSARAGEEKKDET	29500
RKPEAAAEKTAEAPEATGGEGTRRRASGRGRGRGRNGRGGRSGRAEGEEKKDE	31500
RKPEPAGEKAEGAQSGGEGQNGEGRRRGGGRGRGRARGRGGRGGRGGRGQRNA	< 6570
RKPESNEKTEGANGEGHDGTRRRQSTRGRGRAGRGRGGRARGERGEKKEEGAE	14100
RKPETAGEGSGAEGASGGENHRRGSTRGRGRGRGRGGRSSRGGRSRKDGAGAE	33500
RKREEEDARVQEAALKEEEDARVREAARKEEEEEAERLKRRREEEDARVQEAA	22400
RKRGWSDEDGEGEGAEGGEAQNGKGKGKGRGRRARGKGKGKGKESAEAEKDED	27200
RKRKASASPERDEEGKSGPKGRGRTARRGSKAGRGKSGGTQRGGRKGASEREV	38500
RKSAATEEKEEKKEAPKAKRAKKAKEPEPEVEAEAEAAAEKVEEVKEKKKPGR	24800
RKSELIAKYGLLPRDLRKIDSSVLPHILVRHSAILISLLHLRVLIKADRVLVF	57200
RKSTSGKTEKADTEKPEKKKPANEGNTAAGTKGTGERKPAVKAGGGVKGRPSG	17800
RKTGGRSKRTTRGEGKKEEGRSPTKERTTKGARRSKEETRAGGRTSQAEERGK	33900
RKTKFPILLSGDGYIHFGFLYAVIPNLNIMAMSYVAVINNVRVVAYLCLWMSL	50800
RKVGFILYVIMHMRINIVFAAFRLAKFNINPNSVYIKIINCVIKYLLKTMDYF	44700

Sequence	transcriptional activation domain activity
RLAELCLLIDPRLLVKLAGVMARYIESMATYRAHPRQIYNRQCSVFNTSLKLF	62200
RLAGGLRGLTGLEKEELRKRGWGLGWWMMRGAFYENITKAWIHTVTRKLKNKP	47300
RLCEFLFFLLFFGGFLVGGLVGLGVWFGWAFVLAFSFFLALHFGVSNHLFVVF	29000
RLCPRLGLVELFFKNSAELSKVLKALGAAAATTLCTVVFPGYSHRLSFLQWYP	62400
RLCYERFILCLICLPILYLPLVLILGIFIALSLTYIIFISFDPIISSMWYLAL	68400
RLDATAEEEAKRQRACEACRALKVRCDRGSDDSPCKRCEKARRECVITQPSRK	40300
RLEASKKRKARVEVDIVLERDCVVEGGEVRGRMEVRVHGSKRSEGLRVGAGKI	44400
RLEKQGWFAYIKEFRIFLPCLWPTGSIRGKLCLVVLILDLVINRFLRVLTPRQ	59800
RLETLHKCIVTYLWLSYRFANLVGSRKVATYAKEITENVIEKTLMEFTWTRWA	52000
RLFAELFMFSICLFSRVLSYFSVFQLQLINVLMYFLPLMIICGYWAGLLNVAI	52500
RLFALLHLHILAYISFFISSSLAYHLHLFLLLLSYFSLLFCIFVSPRLGLSSC	66400
RLFAYYRSGWQVSNADVVQLPSWLFTLFLCAVCYLCMTIWYTYLTFQIHCVYW	66300
RLFGRGQWTLGRVIFFVFFYFNVAPLMLGVSMVCWFMVFWIPMGRVTLILFYH	85300
RLFSKQLHPRMFRVCLTLIIIVAIWGLTFICLVIFACNPVEKSWHVTMPGKCI	27500
RLGEEKRSKSTEEAPREESEEAESTKKASGKSESAGEEKTKEEGEEGEGKKEG	30800
RLGQCVKRYFDSKQVTHLVNAGKYGTGVVSYLFYFMWSYREESRGANFALWCF	79300
RLHCHVVCPLSHSLLTQVYLFLFFFLSNLLITSLSLPVHFFPFILCLCCIAHF	58000
